Assay [1] deals with M3-protein heterologously expressed on the surface of S. gordonii GP1221 (SGO M3) (S. pyogenes | not stated). In words: radioligand binding; about 14 ng 125I-CIV or 125I-CB3 added to 250 µl bacterial suspension (S. gordonii expressing M3), room temperature 45 min, pellet-associated radioactivity as percentage of input.
Assay [2] deals with Collagen type IV from human placenta, full length (human) (UniProt P02462). In words: SPR; BIAcore 2000, CIV or CB3 immobilised on CM5 chip by amine coupling, M3-protein injected at 6.25-50 µg/ml, 10 mM HEPES, 100 mM NaCl, pH 7.4; apparent dissociation constants. Background: SPR reads the build-up and loss of mass on a sensor chip optically.

Consider “Collagen type IV from human placenta, full length (from UniProt P02462 28-1669; P08572 26-1712) (complex)”, for which the percent of the 125I-labeled ligand bound in assay [1] is more than 80%.

For the substance “GST-M3-protein (recombinant streptococcal M-protein type 3) (natural protein)”, the Kd in assay [2] amounted to 5 nM.

For “Cyanogen bromide fragment 3 (CB3) of collagen type IV (domain or fragment)”, the percent of the 125I-labeled ligand bound in assay [1] is more than 80%.
